# Publication PMC545490, “Mapping and mutation of the conserved DNA polymerase interaction motif (DPIM) located in the C-terminal domain of fission yeast DNA polymerase δ subunit Cdc27” (BMC Molecular Biology, 2004)
# B1: Gal4-Cdc27-273-352 (wild type) [S. pombe] / LexA-Pol1-278-527 [S. pombe] (parent complex)
# chain 1: TEAKSAAPDEPQEIIKSVSGGKRRGKRKVKKYATTKDEEGFLVTKEEEVWESFSEDENISTGTSNVVRNKPTTVNIATKK
# chain 2: PLSPMTPLSSELDVSAFSEINSKIKNVDVPASSYSSPISKVSPSDVTEEDGSLFFFWMDYTEMYGSLCLFGKVYDKATKQYVSCFLKVDGIMRSLYFLPRPSSSSVSEDSIAAQTKDVYDEVANLLSKRGVKEWKSRVSKYKYAFELEDVPRTADYLEVIYSYSYPALPTDLTGSSFSHVFGTNTALFEQFVLSRRVMGPCWLKIQQPNFDAVKNASWCRVEIGCSSPQNISVSFEKNEITSKTPPMTVM
# Variants of: B1
# Experiment: yeast two-hybrid, β-galactosidase activity in liquid cultures; parent: 150; read off a plot
row,response [Miller units],Variant
1,~46,"chain 1 K22A, chain 1 R23A, chain 1 R24A"
2,~35,"chain 1 K30A, chain 1 K31A"
